Measured values reported in patent US20250304927A1, “PRO-PEPTIDE VARIANTS FOR MODULATING ACTIVITY OF TRANSGLUTAMINASES” (CURIE CO. INC., priority 2022, published 2025).

T1: thermostable variant of Streptomyces mobaraensis transglutaminase (Streptomyces mobaraensis, UniProt P81453 79-407)
T1 sequence: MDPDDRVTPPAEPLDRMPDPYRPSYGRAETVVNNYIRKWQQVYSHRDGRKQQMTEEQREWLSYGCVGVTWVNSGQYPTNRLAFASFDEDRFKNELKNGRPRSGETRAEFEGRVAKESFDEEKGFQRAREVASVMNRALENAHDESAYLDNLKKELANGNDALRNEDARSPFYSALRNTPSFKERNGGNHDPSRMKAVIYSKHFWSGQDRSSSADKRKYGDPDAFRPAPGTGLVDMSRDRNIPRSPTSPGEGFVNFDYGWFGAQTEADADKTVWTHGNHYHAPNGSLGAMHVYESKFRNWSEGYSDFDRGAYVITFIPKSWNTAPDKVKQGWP


Key:
Experiment in all cases: cell-based or functional assay
[1] = biological target: T1, thermostable variant of Streptomyces …
[2] = biological target: T1, thermostable variant of Streptomyces …; remark: listed apart in the source
[3] = biological target: T1, thermostable variant of Streptomyces …; remark: listed apart in the source

| Binder | Improvement in pH responsiveness of inhibitory peptide relative to WT [1] [fold] | Reduction in binding affinity of inhibitory peptide relative to WT [2] [fold] | Improvement in binding affinity of inhibitory peptide relative to WT [3] [fold] |
| --- | --- | --- | --- |
| MDNGAGEETKS [pro-peptide truncation variant ΔY12-P46] | > 1.2 | > 1.2 | – |
| MDNGAGEETKSYAETYR [pro-peptide truncation variant ΔL18-P46] | > 5 | > 1.2 | – |
| MDNGAGEETKSYAETYRLTADDVAN [pro-peptide truncation variant ΔI26-P46] | > 1.2 | > 1.2 | – |
| MDNGAGEGTKSYAETYRLTADDVANINALNESAPAASSAGPSFRAP [pro-peptide variant E8G] | > 1.2 | > 1.2 | – |
| MDNGAGEETKSYAETYRLTADDVANINALNESAPAASSAGPSFRAC [pro-peptide variant P46C] | > 1.2 | – | > 1.2 |
| MDNGAGEETKSYAETYRLTADDVANINALNESAPAASSAGPSFRAD [pro-peptide variant P46D] | > 1.2 | – | > 1.2 |
| MDNGAGEETKSYAETYRLTADDVANINALNESAPAASSAGPSFRAE [pro-peptide variant P46E] | > 1.2 | – | > 1.2 |
| MDNGAGEETKSYAETYRLTADDVANINALNESAPAASSAGPSFRAI [pro-peptide variant P46I] | > 1.2 | – | > 1.2 |
| MDNGAGEETKSYAETYRLTADDVANINALNESAPAASSAGPSFRAK [pro-peptide variant P46K] | > 1.2 | – | > 1.2 |
| MDNGAGEETKSYAETYRLTADDVANINALNESAPAASSAGPSFRAL [pro-peptide variant P46L] | > 1.2 | – | > 1.2 |
| MDNGAGEETKSYAETYRLTADDVANINALNESAPAASSAGPSFRAN [pro-peptide variant P46N] | > 5 | – | > 1.2 |
| MDNGAGEETKSYAETYRLTADDVANINALNESAPAASSAGPSFRAQ [pro-peptide variant P46Q] | > 1.2 | – | > 1.2 |
| MDNGAGEETKSYAETYRLTADDVANINALNESAPAASSAGPSFRAR [pro-peptide variant P46R] | > 1.2 | – | > 1.2 |
| MDNGAGEETKSYAETYRLTADDVANINALNESAPAASSAGPSFRAS [pro-peptide variant P46S] | > 1.2 | – | > 1.2 |
| MDNGAGEETKSYAETYRLTADDVANINALNESAPAASSAGPSFRAV [pro-peptide variant P46V] | > 1.2 | – | > 1.2 |
| MDNGAGEETKSYAETYRLTADDVANINALNESAPAASSAGPSFRAW [pro-peptide variant P46W] | > 1.2 | – | > 1.2 |
| MDNGAGGETKSYAETYRLTADDVANINALNESAPAASSAGPSFRAP [pro-peptide variant E7G] | > 5 | > 1.2 | – |
| MDNGAGEETCSYAETYRLTADDVANINALNESAPAASSAGPSFRAP [pro-peptide variant K10C] | – | > 1.2 | – |
| MDNGAGEETKHYAETYRLTADDVANINALNESAPAASSAGPSFRAP [pro-peptide variant S11H] | – | > 1.2 | – |
| MDNGAGEETKYYAETYRLTADDVANINALNESAPAASSAGPSFRAP [pro-peptide variant S11Y] | – | > 1.2 | – |
| MDNGAGEETKGYAETYRLTADDVANINALNESAPAASSAGPSFRAP [pro-peptide variant S11G] | – | > 5 | – |

| Binder | Improvement in pH responsiveness of inhibitory peptide relative to WT [1] [fold] | Reduction in binding affinity of inhibitory peptide relative to WT [2] [fold] | Improvement in binding affinity of inhibitory peptide relative to WT [3] [fold] |
| --- | --- | --- | --- |
| MDNGAGEETKSPAETYRLTADDVANINALNESAPAASSAGPSFRAP [pro-peptide variant Y12P] | – | > 1.2 | – |
| MDNGAGEETKSSAETYRLTADDVANINALNESAPAASSAGPSFRAP [pro-peptide variant Y12S] | – | > 5 | – |
| MDNGAGEETKSYAATYRLTADDVANINALNESAPAASSAGPSFRAP [pro-peptide variant E14A] | – | > 1.2 | – |
| MDNGAGEETKSYACTYRLTADDVANINALNESAPAASSAGPSFRAP [pro-peptide variant E14C] | – | > 1.2 | – |
| MDNGAGEETKSYADTYRLTADDVANINALNESAPAASSAGPSFRAP [pro-peptide variant E14D] | – | > 1.2 | – |
| MDNGAGEETKSYAHTYRLTADDVANINALNESAPAASSAGPSFRAP [pro-peptide variant E14H] | – | > 1.2 | – |
| MDNGAGEETKSYAETYRETADDVANINALNESAPAASSAGPSFRAP [pro-peptide variant L18E] | – | > 1.2 | – |
| MDNGAGEETKSYAETYRSTADDVANINALNESAPAASSAGPSFRAP [pro-peptide variant L18S] | – | > 1.2 | – |
| MDNGAGEETKSYAETYRLTADPVANINALNESAPAASSAGPSFRAP [pro-peptide variant D22P] | – | > 1.2 | – |
| MDNGAGEETKSYAETYRLTADQVANINALNESAPAASSAGPSFRAP [pro-peptide variant D22Q] | – | > 1.2 | – |
| MDNGAGEETKSYAETYRLTADRVANINALNESAPAASSAGPSFRAP [pro-peptide variant D22R] | – | > 1.2 | – |
| MDNGAGEETKSYAETYRLTADYVANINALNESAPAASSAGPSFRAP [pro-peptide variant D22Y] | – | > 1.2 | – |
| MDNGAGEETKSYAETYRLTADDVENINALNESAPAASSAGPSFRAP [pro-peptide variant A24E] | – | > 1.2 | – |
| MDNGAGEETKSYAETYRLTADDVPNINALNESAPAASSAGPSFRAP [pro-peptide variant A24P] | – | > 5 | – |
| MDNGAGEETKSYAETYRLTADDVANANALNESAPAASSAGPSFRAP [pro-peptide variant I26A] | – | > 1.2 | – |
| MDNGAGEETKSYAETYRLTADDVANENALNESAPAASSAGPSFRAP [pro-peptide variant I26E] | – | > 1.2 | – |
| MDNGAGEETKSYAETYRLTADDVANINALNESAPAASDAGPSFRAP [pro-peptide variant S38D] | – | > 1.2 | – |
| MDNGAGEETKSYAETYRLTADDVANINALNESAPAASPAGPSFRAP [pro-peptide variant S38P] | – | > 1.2 | – |
| MDNGAGEETKSYAETYRLTADDVANINALNESAPAASYAGPSFRAP [pro-peptide variant S38Y] | – | > 1.2 | – |
| MDNGAGEETKSYAETYRLTAD [pro-peptide truncation variant ΔD22-P46] | – | > 1.2 | – |
